Laboratory results from the DeepSol protein solubility set.

Assay: soluble on expression in E. coli; label from the status in PepcDB or PDB records
With “MSKVIQKKNHWTSRVHECTVKRGPQGELGLTVLGGAEHGEFPYVGAVAAVEAAGLPGGGEGPRLGEGELLLEVQGVRVSGLPRYDVLGVIDSCKEAVTFKAVRQGGRLNKDLRHFLNQRFQKGSPDHELQQTIRDNLYRHAVPCTTRSPREGEVPGVDYNFLTVKEFLDLEQSGTLLEVGTYEGNYYGTPKPPSQPVSGKVITTDALHSLQSGSKQSTPKRTKSYNDMQNAGIVHAENEEEDDVPEMNSSFTADSGEQEEHTLQETALPPVNSSIIAAPITDPSQKFPQYLPLSAEDNLGPLPENWEMAYTENGEVYFIDHNTKTTSWLDPRCLNKQQKPLEECEDDEGVHTEELDSELELPAGWEKIEDPVYGIYYVDHINRKTQYENPVLEAKRKKQLEQQQQQQQQQQQQQQQQQQQQQTEEWTEDHSALVPPVIPNHPPSNPEPAREVPLQGKPFFTRNPSELKGKFIHTKLRKSSRGFGFTVVGGDEPDEFLQIKSLVLDGPAALDGKMETGDVIVSVNDTCVLGHTHAQVVKIFQSIPIGASVDLELCRGYPLPFDPDDPNTSLVTSVAILDKEPIIVNGQETYDSPASHSSKTGKVNGMKDARPSSPADVASNSSHGYPNDTVSLASSIATQPELITVHIVKGPMGFGFTIADSPGGGGQRVKQIVDSPRCRGLKEGDLIVEVNKKNVQALTHNQVVDMLVECPKGSEVTLLVQRGGLPVPKKSPKSQPLERKDSQNSSQHSVSSHRSLHTASPSHSTQVLPEFPPAEAQAPDQTDSSGQKKPDPFKIWAQSRSMYENRPMSPSPASGLSKGEREREINSTNFGECPIPDYQEQDIFLWRKETGFGFRILGGNEPGEPIYIGHIVPLGAADTDGRLRSGDELICVDGTPVIGKSHQLVVQLMQQAAKQGHVNLTVRRKVVFAVPKTENEVPSPASSHHSSNQPASLTEEKRTPQGSQNSLNTVSSGSGSTSGIGSGGGGGSGVVSTVVQPYDVEIRRGENEGFGFVIVSSVSRPEAGTTFGNACVAMPHKIGRIIEGSPADRCGKLKVGDRILAVNGCSITNKSHSDIVNLIKEAGNTVTLRIIPGDESSNATLLTNAEKIATITTTHTPSQQGTQETRNTTKPKQESQFEFKAPQATQEQDFYTVELERGAKGFGFSLRGGREYNMDLYVLRLAEDGPAERCGKMRIGDEILEINGETTKNMKHSRAIELIKNGGRRVRLFLKRGDGSVPEYAM” the “soluble on expression in E. coli” value was “soluble”.
In the case of “MSKVKRKLKNIVRNIMLSETFANTNLVKNMRKNHKEKLEEGRRVLFKEHAKDCLETIKENLDKNNLHFWLDYGTLLGAMREKDFIAHDLDIDLGMFYENQVEEVEKAFKEANIKKVREFTLDGKVVEQTYSYKGLYFDIFYYFKDENLMWTYGFTFKNNKLNKVSYKDKDVSTGFEGMKYFVKKRGLEKIMFKGKEYTVPENPDGYLRENYGPNYMTPIKEWDYVEAPTNQEKLKGGDIVMIEYYNLEHHHHHH”, the “soluble on expression in E. coli” value is reported as “soluble”.
With “MSKVPSDIEIAQAAKMKPVMELARGLGIQEDEVELYGKYKAKISLDVYRRLKDKPDGKLILVTAITPTPAGEGKTTTSVGLTDALARLGKRVMVCLREPSLGPSFGIKGGAAGGGYAQVVPMEDINLHFTGDIHAVTYAHNLLAAMVDNHLQQGNVLNIDPRTITWRRVIDLNDRALRNIVIGLGGKANGVPRETGFDISVASEVMACLCLASDLMDLKERFSRIVVGYTYDGKPVTAGDLEAQGSMALLMKDAIKPNLVQTLENTPAFIHGGPFANIAHGCNSIIATKTALKLADYVVTEAGFGADLGAEKFYDVKCRYAGFKPDATVIVATVRALKMHGGVPKSDLATENLEALREGFANLEKHIENIGKFGVPAVVAINAFPTDTEAELNLLYELCAKAGAEVALSWAKGGEGGLELARKVLQTLESRPSNFHVLYNLDLSIKDKIAKIATEIYGADGVNYTAEADKAIQRYESLGYGNLPVVMAKTQYSFSDDMTKLGRPRNFTITVREVRLSAGGRLIVPITGAIMTMPGLPKRPAACNIDIDADGVITGLF” the “soluble on expression in E. coli” value was “soluble”.
With “MSLAAENILQRQFKAEAPCEKWVTDITEFRAGGQKLYLSPILDLFYGEIVAWETACRPTEELVKRMLNKGLESLAEGEKPLLHSDQGWHYRIKSYQSALADRGLVQSMSRKGNSLDNAVMENFFGHLKEEMYYRRDYRNVEELENAVNEYITYWNQKRIKLSLGGLSPVEYRTEYQKAGEGHHHHHH” the “soluble on expression in E. coli” value was “not soluble”.
In the case of “MSLADKRKHRFSVRYWLWRHTSLKRVAFCGRVAASAVASVGVRCSDGRAGFAGLQSCGSVWACPVCNAKIMARRGLELGAAVETWTKHGGRVAFMTFTVRHSRKDSLTAVWDGVASGWRRVTSGKGWTSDQLRHGVEGFVRVVEVTHGRNGWHVHLHVLVFLVGDFGDALALHRSMFGRWERGVLAAGLGTPLARAQDVQQMSAATGLDHLARYLSKAQFQGKIGHELTNSQSKTARSALSTRSTWEVLGDAANGLAKEVGLWFEWEKGSRGRRQIGWSAGLRDRLGLMVEESDDVIAAEEVGSVADTVALITGDGWRRLVGQQKLYECLRSCELGGQAGLARWLQEHGIEHELVEVDEGHHHHHH”, the “soluble on expression in E. coli” value is reported as “soluble”.
In the case of “MSLAEEISQTTAADTAVTEVRTEDSSQTSSQETAVTETTQSEGTASKQLTTPAVADQTTEPTDNEPISSSDGASSPYQVTDTTEPQQTLTPADSEPQAKADVQQAAAPKKEEINPVTNLEDMSHDTNGTWEVREDGIHSNAIGKGDSFLYSQSSGKNFVYATDVTFKQNSGAAALVFRSNNDSNNKNMYAVNVDIGGHKAKFWRWVDNKDIQLIDERDVVPTADNRYTLKVVAVNNWISYYVNDILMASTGDYVLQKADKGQNTVIPEGHFGLLNWNGDMVFQNTKFALLDDTTAPLIDNITVRSDRGNVEKQGQFFSEEPLHIQYVSNDASQVSLDIAKHNPAATVTVEDKTGRVYTDPSHLPVNVGANYFTVKSTVIDSFGRTVTLTYRINVHRRQNDEVYYNELYRDQYHYSVKDGWANDPNGLVYYNGVYHLFHQFYDDTKWGPMHWAHATSTDLIHWKEEPIAFYPDSNGYMFSGCVVVDEHNSSGLFKTAKGGLVAIITANGNGQRMELAYSEDEGKTWQKYDRIVADWSNDPLQNQDFRDPKVFHWNNQWFMVLAGGPLRIYSSNNLKDWKVESTYPDLHTECPDMYPIVANDGVLKWVLSRGGRFYKVGDFKQVDGKWTFIADDAYKDKDQVMNFGKDSYAAMTYYVHDFGTETRPTIPKLTEVNWMNTWEDYCNLVADTVGQDFNGTFNLNLDLGLINENGQYILTQTPVKAYDSLRDVNTALHFKDVTVDANNTLLKDFKGDSYEIVSHFRPDEKTTKVGFNLRVGNGQATKVIYDLQTETLSIDRSQSGTILSAAFAKVNSQHVTKNADGSIDLHIYVDRASVEVFSKNNTVAGANQIFPNPEAVGASIIVEGGKAQADISVYQMKTIWTDKKDTAKPVAMNTTTAKELALQVGQSQDLQVYLAPASVRQDVEWTISDPSLVRTSQKGNVLHLTAVKKGKLTITAISKENPSLSKTFTISITLNNFKTNLKGLQSVTGKWYVDDETLYDSNTSSNDYYMASQKPGFKEYDYDIDLKYQRGLINLFVASGNIDPSQAYSVQFGDSETVRLYRFAGDTIAEANMGKRINDDQYHHIKVTKTKNSIIISVDGQEVMSHNFDQVDSYFNDAYVGLGLWDGAVEFQNFFVTDHATTPKPDSDPTPQPDAPEALAQERELIDPATGVRVILQKGELASIVRVKVSHIETNDAHTPAVLNAKDYDLFNITPIDKNEKVVAITKPATVLLPIDAGKVVDKVVYLPNTDKEENLPFTIVSLTDSNGKKQSYVRFTAEHFSEYGLVYQAENQTNLKSKEKQDNVAISYPLNLEQEVKVSSISRKYAANKTADVNSVQQTEPSVMSSSPKATLPDTGDHKTDLSQLGVLAMIGSFLVEIAGYFKKRKDEGHHHHHH”, the “soluble on expression in E. coli” value is reported as “soluble”.
For “MSLAEFIYTMKKVRKAHGDKVILDDVTLSFYPGAKIGVVGPNGAGKSSVLRIMAGLDKPNNGDAFLATGATVGILQQEPPLNEDKTVRGNVEEGMGDIKIKLDRFNEVAELMATDYTDELMEEMGRLQEELDHADAWDLDAQLEQAMDALRCPPADEPVTNLSGGERRRVALCKLLLSKPDLLLLDEPTNHLDAESVQWLEQHLASYPGAILAVTHDRYFLDNVAEWILELDRGRAYPYEGNYSTYLEKKAERLAVQGRKDAKLQKRLTEELAWVRSGAKARQAKSKARLQRYEEMAAEAEKTRKLDFEEIQIPVGPRLGNVVVEVDHLDKGYDGRALIKDLSFSLPRNGIVGVIGPNGVGKTTLFKTIVGLETPDSGSVKVGETVKLSYVDQARAGIDPRKTVWEVVSDGLDYIQVGQTEVPSRAYVSAFGFKGPDQQKPAGVLSGGERNRLNLALTLKQGGNLILLDEPTNDLDVETLGSLENALLNFPGCAVVISHDRWFLDRTCTHILAWEGDDDNEAKWFWFEGNFGAYEENKVERLGVDAARPHRVTHRKLTRGEGHHHHHH”, the “soluble on expression in E. coli” value was “soluble”.
With “MSLAEFSADLCLFDLDGTIVSTTVAAEKAWTKLCYEYGVDPSELFKHSHGARTQEVLRRFFPKLDDTDNKGVLALEKDIAHSYLDTVSLIPGAENLLLSLDVDTETQKKLPERKWAIVTSGSPYLAFSWFETILKNVGKPKVFITGFDVKNGKPDPEGYSRARDLLRQDLQLTGKQDLKYVVFEDAPVGIKAGKAMGAITVGITSSYDKSVLFDAGADYVVCDLTQVSVVKNNENGIVIQVNNPLTRAEGHHHHHH” the “soluble on expression in E. coli” value was “not soluble”.
For “MSLAEPRNGESAGADAVLTKAIEDALGNGTGSVTVDLPQAEGKAKAGDLVTLRYTMTTADGALVATTEESVAADKGRPRSVAFTARSRYRPEEIVAGGEGNLPGVAEAVIGMAPGEKKHLSLSADKAFGARDPQRVVTMATVKSLPRTVAIPAADYVKNFGALPVVGKELPVVPYFPARVIEVTEQQAKLQLLARDGERFTESFGAVETKVDGESVKIRLVPTIGAPFEFRGARGTITAAGEENFTVDFNHPLADRSVVLDLEVVSLTKGEKLAAISVPWLENHDQGLEKAKQEEKPAVLVLYADWCQWCKKLFGETAEDPRIKAVSDRFVWIRVNSDKEKAYKEQYGQDGYPLIVLLDRQGKVAKKLDGFRDAAGLREELNALLEGHHHHHH”, the “soluble on expression in E. coli” value was “soluble”.
With “MSLAHYKKFRLSTLAAVVGIVLAVGPENSYAEAPIQFNTRFLDVKDDASLDLSRFSRKGYIMPGSYHLQVLVNQSQIVQDNVITYSVDNNDPDNTYPCLSPELVSLLGLKPEIADKMIWINAGQCLQPDQLEGMETQTDLSQSTLTVIIPQAYLEYSDEEWDPPSRWDEGIPGVLFDYNVNSQWRHAEHDDGDEYDISGNGTVGANLGAWRLRADWQANYRHENDSEDKDNFGSSSEQNWDWNRYYAWRAIPQLRAQLTLGEGSLESDIFDGFNYVGGSLITDDQMLPPNLRGYAPDISGVARTNAKVTVTQRGRVIYESQVPAGPFRIQDINETVSGDLHVKIEEQSGQVQEYDVSTASIPFLTRPGQVRYKLAAGRPQDWDHNMEGGFFTSAEASWGIANGWSLYGGAIGEQDYQALALGLGRDLALLGAFSVDVTHSRATLPEGSAYGDGTIQGNSFRASYAKDFDDIDSRLTFAGYRFSEENYMTMDEFIDTHNDDNDRQRTGHDKEMYTLTYSQNFSAINVNAYINYTHRTYWNQPNQDSYNLTLSHYFDVGEVRGISLSVNGFRNEYDNERDDGVYVSLSIPWGNNRTLSYNGSFSDDNNSNQVGYYERIDDRNNYQINAGRADNGATLDGYYRYQASYADIDVSANYQEGDYTSGGLNIQGGATLTAKGGALHRTSVNGGSRLLVDVGDEANVPISGYSTPVYTNAFGKAVIVDVNDYYRNQVKIDITQLPEDAEAILSIAQATLTEGAIGYRRMEVLSGKKAMASIRLRDGGTPPFGAEVYNSRQQQLGIVGEDGSVYLIGINPGERLQVTWEGKTQCEATLPDPLPGDLFSGLLLPCIGDASSPEATQPEEKPLLQLHTQRRTSSTQPEALSSRYPTHEGGSHHHHHH” the “soluble on expression in E. coli” value was “soluble”.
For “MSLAKFAPVQYKYIIKAEFEIDGIVDREDIIGAIFGQTEGLLGMELDLRELQKQGKLGRIEVEYKRVGNKTIGTITIPTSLKAVETSLIAAAIETVDRVGPAKARFRVKEIVDVRSSKREYIRNRAKELFVQMMSKTAPDIEELRRELEEAYYSKQLIEYGEEKLPAGPLVEKSDEIILVEGRADVVNLVKHGILNVLGMNGINIPKSVVELSKRKKVTLFIDGDRGGELVLRNMLAAGADIDYVAVAPPGREVEELTNKEILKALKSKIPLEQYIKNLRISINNDENKEKYKELLSKVFDTKKAIVFDEQFNIIDEKPLEEIDKLPSAYGIAIDKILDNETYAKIKGKYQLILALDSNVNAQERVITLKDIQEGHHHHHH”, the “soluble on expression in E. coli” value was “not soluble”.
